Results: patent US20210079102A1 (DRAGONFLY THERAPEUTICS, published 2021)

T1: murine NKG2D overexpressed on EL4 cells (EL4-mNKG2D) (mouse, UniProt O54709 1-232)
T1 construct: whole, on cells; also called EL4-mNKG2D cells
T1 sequence (looked up): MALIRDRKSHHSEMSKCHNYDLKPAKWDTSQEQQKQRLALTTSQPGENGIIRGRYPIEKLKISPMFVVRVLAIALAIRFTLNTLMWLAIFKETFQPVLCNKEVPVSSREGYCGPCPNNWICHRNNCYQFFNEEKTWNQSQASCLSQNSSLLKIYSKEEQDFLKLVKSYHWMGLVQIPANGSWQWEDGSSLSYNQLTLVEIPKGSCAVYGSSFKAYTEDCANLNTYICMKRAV

T2: human NKG2D expressed on EL4 cells (human, UniProt P26718 1-216)
T2 construct: whole, on cells; also called extracellular NKG2D expressed on EL4 cells; cell-expressed human NKG2D
T2 sequence (looked up): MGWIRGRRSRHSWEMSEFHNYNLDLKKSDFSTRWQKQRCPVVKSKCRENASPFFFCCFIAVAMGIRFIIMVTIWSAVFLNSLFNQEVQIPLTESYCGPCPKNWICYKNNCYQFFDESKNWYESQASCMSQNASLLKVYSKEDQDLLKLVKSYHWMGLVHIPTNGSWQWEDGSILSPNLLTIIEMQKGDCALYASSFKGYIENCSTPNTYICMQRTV


Legend:
[1] = molecular target: T3, Tyrp-1 on B16F10 melanoma cells (UniProt P07147 25-537, limits assumed); experiment: flow cytometry on B16F10 tumor cells, 60 ug/mL with four-fold dilutions, goat anti-mouse PE secondary
T3 construct: whole, on cells; also called Tyrp-1-positive B16F10 melanoma cells
Method: (§1) 60 μg/mL of indicated antibodies with four-fold dilutions were added to 2×10⁵ B16F10 tumor cells (FIG. 58A) or EL4-mNKG2D cells (FIG. 58B). Binding was assessed using a goat anti-mouse PE secondary antibody followed by flow cytometric analysis.

[2] = molecular target: T1, murine NKG2D overexpressed on EL4 cells …; experiment: flow cytometry on EL4-mNKG2D cells, 60 ug/mL with four-fold dilutions, goat anti-mouse PE secondary
Method: as §1

[3] = molecular target: T2, human NKG2D expressed on EL4 cells; experiment: flow cytometry on EL4 cells expressing human NKG2D, anti-human IgG secondary, FOB of MFI
Method: EL4 mouse lymphoma cell lines were engineered to express human NKG2D. […] The binding of the multi-specific binding proteins to NKG2D was detected using fluorophore-conjugated anti-human IgG secondary antibodies. Cells were analyzed by flow cytometry, and fold-over-background (FOB) was calculated using the mean fluorescence intensity (MFI) of NKG2D-expressing cells compared to parental EL4 cells.

[4] = molecular target: T4, CD33 expressed on MV4-11 human AML cells (human, UniProt P20138 18-364); experiment: flow cytometry on MV4-11 cells, FOB of MFI
T4 construct: whole, on cells; also called cell-expressed CD33
T4 sequence (P20138 18-364): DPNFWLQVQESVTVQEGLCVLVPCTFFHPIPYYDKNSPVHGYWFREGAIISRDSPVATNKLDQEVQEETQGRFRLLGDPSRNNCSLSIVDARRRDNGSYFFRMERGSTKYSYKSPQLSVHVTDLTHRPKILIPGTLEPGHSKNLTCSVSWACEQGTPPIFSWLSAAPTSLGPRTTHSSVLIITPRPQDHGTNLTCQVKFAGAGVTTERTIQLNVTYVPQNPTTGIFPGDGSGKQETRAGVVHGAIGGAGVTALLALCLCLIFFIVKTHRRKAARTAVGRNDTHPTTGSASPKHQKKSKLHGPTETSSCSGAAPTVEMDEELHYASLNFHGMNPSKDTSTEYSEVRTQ
Method: Human AML cell line MV4-11 expressing CD33 was used to assay the binding of TriNKETs to the tumor associated antigen. TriNKETs and the parental anti-CD33 monoclonal antibody were incubated with the cells, and the binding was detected using fluorophore-conjugated anti-human IgG secondary antibodies. Cells were analyzed by flow cytometry, and fold-over-background (FOB) was calculated using the mean fluorescence intensity (MFI) from TriNKETs and the parental monoclonal anti-CD33 antibody normalized to secondary antibody controls.

Row | binding result [1] | binding result [2] | binding result [3] | binding result [4] | Binder
1 | binds | binds |  |  | mcFAE-C26.99 TriNKET (bispecific antibody, mouse IgG2c, also called murine cFAE-C26.99 TriNKET; TA99 TriNKET (mcFAE-C26.99)) light 1: DIQMTQSPSTLSASVGDRVTITCRASQSISSWLAWYQQKPGKAPKLLIYKASSLESGVPSRFSGSGSGTEFTLTISSLQPDDFATYYCQQYGSFPITFGGGTKVEIKRADAAPTVSIFPPSSEQLTSGGASVVCFLNNFYPKDINVKWKIDGSERQNGVLNSWTDQDSKDSTYSMSSTLTLTKDEYERHNSYTCEATHKTSTSPIVKSFNRNEC heavy 1: QVQLQQWGAGLLKPSETLSLTCAVYGGSFSGYYWSWIRQPPGKGLEWIGEIDHSGSTNYNPSLKSRVTISVDTSKNQFSLKLSSVTAADTAVYYCARARGPWSFDPWGQGTLVTVSSAKTTAPSVYPLAPVCGGTTGSSVTLGCLVKGYFPEPVTLTWNSGSLSSGVHTFPALLQSGLYTLSSSVTVTSNTWPSQTITCNVAHPASSTKVDKKIEPRVPITQNPCPPLKECPPCAAPDLLGGPSVFIFPPKIKDVLMISLSPMVTCVVVDVSEDDPDVQISWFVNNVEVHTAQTQTHREDYNSTLRVVSALPIQHQDWMSGKEFKCKVNNRALPSPIEKTISKPRGPVRAPQVYVLPPPAEEMTKKEFSLTCMIKGFLPAEIAVDWTSNGRTEQNYKNTATVLDSDGSYFMYSRLRVQKSTWERGSLFACSVVHEGLHNHLTTKTISRSLGK light 2: DIQMSQSPASLSASVGETVTITCRASGNIYNYLAWYQQKQGKSPHLLVYDAKTLADGVPSRFSGSGSGTQYSLKISSLQTEDSGNYYCQHFWSLPFTFGSGTKLEIKRADAAPTVSIFPPSSEQLTSGGASVVCFLNNFYPKDINVKWKIDGSERQNGVLNSWTDQDSKDSTYSMSSTLTLTKDEYERHNSYTCEATHKTSTSPIVKSFNRNEC heavy 2: EVQLQQSGAELVRPGALVKLSCKTSGFNIKDYFLHWVRQRPDQGLEWIGWINPDNGNTVYDPKFQGTASLTADTSSNTVYLQLSGLTSEDTAVYFCTRRDYTYEKAALDYWGQGASVIVSSAKTTAPSVYPLAPVCGGTTGSSVTLGCLVKGYFPEPVTLTWNSGSLSSGVHTFPALLQSGLYTLSSSVTVTSNTWPSQTITCNVAHPASSTKVDKKIEPRVPITQNPCPPLKECPPCAAPDLLGGPSVFIFPPKIKDVLMISLSPMVTCVVVDVSEDDPDVQISWFVNNVEVHTAQTQTHREDYNSTLRVVSALPIQHQDWMSGKEFKCKVNNRALPSPIEKTISKPRGPVRAPQVYVLPPPAEEMTKKEFSLTCMITGFLPAEIAVDWTSNGRTEQNYKNTATVLDSDGSYLMYSKLTVQKSTWERGSLFACSVVHEGLHNHLTTKTISRSLGK
2 |  |  | binds | binds | CD33-TriNKET-C26 (ADI-28226 and a CD33-binding domain) (bispecific antibody, V domains shown, also called C26-TriNKET-CD33) VH 1: QVQLQQWGAGLLKPSETLSLTCAVYGGSFSGYYWSWIRQPPGKGLEWIGEIDHSGSTNYNPSLKSRVTISVDTSKNQFSLKLSSVTAADTAVYYCARARGPWSFDPWGQGTLVTVSS VL 1: DIQMTQSPSTLSASVGDRVTITCRASQSISSWLAWYQQKPGKAPKLLIYKASSLESGVPSRFSGSGSGTEFTLTISSLQPDDFATYYCQQYGSFPITFGGGTKVEIK VH 2: QVQLVQSGAEVKKPGASVKVSCKASGYTFTDYVVHWVRQAPGQGLEWMGYINPYNDGTKYNEKFKGRVTMTRDTSISTAYMELSRLRSDDTAVYYCARDYRYEVYGMDYWGQGTLVTVSS VL 2: DIVLTQSPASLAVSPGQRATITCTASSSVNYIHWYQQKPGQPPKLLIYDTSKVASGVPARFSGSGSGTDFTLTINPVEANDTANYYCQQWRSYPLTFGQGTKLEIK
3 |  |  |  | binds | parental anti-CD33 monoclonal antibody (antibody, V domains shown, also called parental monoclonal anti-CD33 antibody; parental anti-CD33 antibody) VH: QVQLVQSGAEVKKPGASVKVSCKASGYTFTDYVVHWVRQAPGQGLEWMGYINPYNDGTKYNEKFKGRVTMTRDTSISTAYMELSRLRSDDTAVYYCARDYRYEVYGMDYWGQGTLVTVSS VL: DIVLTQSPASLAVSPGQRATITCTASSSVNYIHWYQQKPGQPPKLLIYDTSKVASGVPARFSGSGSGTDFTLTINPVEANDTANYYCQQWRSYPLTFGQGTKLEIK
